assay: label from the status in PepcDB records

Row | Sequence | protein production
1 | MDRRDYYVEYYEVLDRVLSDYVNQLREKREHWLKMGGHDVGVPLINLLFWQFTWHREEYDRLRKEGKSCGEALGSVKEILADKQVEEWERQEEEYKIYDHEWYEALAPYGGQLVIYIYNARQLVYLTPLIERLEEPVLLLSEYEIPDETELPDFVTAITLEFTKTVPLVNPFLKEWFPLIFQYANTFDILMRILQPKGLIFLEGCHYQQLLLATIGRDYGIPTLCIQQGWPSLMHTAFRRMPYRYYLMWGEGFRTLWEKHNPLPDFVPTGYMYQVEPRNETKKECVTFFLQGPFFLSDKRYLQEMIRLIGTVAAEFPARRFLVREHPEFRIGEEVRMEWEQIPNIEMVTDGKLAEVFARTRVGVAHYSSSLMEGVAHGAVPLVYDPTEGSRYSPDVEAEGLGMIAKTKEELTGGLSRILGNYEDFKQRIEKEQPLWFQATGEETLRNMVGFIKEKMPPVTLKEIYVVDTDTLTRERPVGVSGLLRCKNCEDFLEMCIDSCIDGLDELIAVYHDCTDRTPEILRQKAAQYPDKIRVFEYQPSVYPIDLDEEELEKAKLLPPDSIHTLAGYCNYALSKASYRYAVKIDADQVYFTDRLKHICDAYRSDKKVRFNVAECISYNLYRAYVDSFNRIEMRPFRWLERIALWTHASYASYLEKMIIRYKVPVSMSGINLFRKDREWMVGLGQEHPEPDSKEILPPFNGVRDTFFFEVSEDRIFRYMTETKLDGRHRGVEVMRCPNEILDVGFCWFHLRALMKEHEEGYRQSYRKHPERFIPLGTFVKLSYRNLQQRYKPFVAVRWAEPVFAYFFMTGKGRIPWKKLKEIE | failed
2 | MDRSPERRTAVMIWGALVAGPALFLVVALALPLAGEPAPGIAQPLLLVLTGLVLVEVPLSWLWAVRARLAGKAGGEAISVEEQARTRLIIAAALCEGAALFAVVVFMVTRDARALPLFAIAFGALLAHYPGDRHWARLCRGSGAGSSAPPNRLMRG | failed
3 | MDSAAPDCTAKCRSLKHALDVLSVITKGSERQIKIFLSSYCYNAATVKDAFGRNALHLVSSCGKKAVLDWLIEKGVDLLHGVSLYMQDKEGLSPLDLLMKDRPAHVVFKNTDPTEVYTWGDNTNFTLGHGSQNSKHHPELLDLFSRSRVYVKQVVLCKFHSVFLSQQGQVYTCGHGRGGRLGHGDEQTCLVPRLVEGLSGHSCSQVAAAKDHTVVLTEDGCVYTFGLNTFHQLGIIPPPSSCNVPRQSRSSKHGHNSAQLQLIPGERQLNLKKVLVSGGCMEYKVDPEHLTENGGQKICILAMDGAGRVFCWRSLSSSLKQCRWAYPRQVSISDIALNRNEILFVTQDGEGFKGKWFEDKRKNSEKKADILPNLHHSSSDVSCVSDTNSVYERIRLEKLPFAHRAVSVSTDPSGCNFAILQSDPKTSLYEIPVVSSSSFFEEFGKLLRETDEMDSFHDVTFQVGNRLFPAHKYVLAVRSDFFQKLFLSDGTLLELTDVYRKDEDAAGCHLFVVEKVHPDLFEYLLQFMYTDTCDFLTHGFKPRMIMNKKSEDSKGSPESRLHAVNCHVDDKQKSAFEVYRSNQAHTLSERQKSKPKSSKKGKGVGEDDPVKMLQNVAKKFGLSNLSSRLDGVRYENEKINVIAKKTGNKLKLSQKKCSFLYDVTMKSVDGKEFPCHKCVLCARLEYFHSMLSRSWIEASSCAALEMPIQAEILKVILDYLYTDEAVVIKESQNVDFVCSVLVVADQLLITRLKEMCEVALAENLTLKNAAMLLEFASMYNAEQLKLSCLQFIGLNMAALLEARSLDVLSEDVLKDLSIFYRKMVPAMERRVITPYQDGPDISCVQAEDGEVFLKEEISLEPNHSPWLSSSLAASPAVAPVTFASIVEEERQQEAALIRSREKPLALIQVEEHAIQDLLVFYEAFGNPDEFVIVERTPQGPVAVPMWNKHGC | failed
4 | MDSAAVAFTTLDYVIFGVYLFVIVGLGLWVSQEEEGEEKDSADYFLASKALPFWAIGSSLIAANISAEQFIGMSGSGFRVGLAIASYEWMAAVTLLVIAWFFLPIYLEKEIYTMPQFLEERYDGRVRMLLAIFWLLVYVFVNLTSVLYMGGLSINVIMGFPLWASVLGLAAVATAYSLYGGLKAVAWTDVVQVVVLVGGGLLTTWVALDAYGGSEAGVVGGFTQLMGDASGRFNMILFEGELMYRNDEGALKDAYQLLPGLSVLFGGLWVANLFYWGCNQYIIQRALAAKSLKEAQRGLAFAGYLKLLLPLIVVVPGIVAFALDAPIQRGDEAYPWLLGEYVGSGFRGLAFAALVAAIISSLASMMNSASTIFTMDLYRNYTSREDVSERRLVRIGRAVALICIVVAAALAPQLADLDQVFQYIQEYTGFVSPGVLAIFVLGLFWSKATPNAALVSAVLSIPLSAAFKFWTPGVAFLNRMLIVFFISVALIVAISLLENEGEDHPKAIDVGGIERERDPIYNVAAFGILAITAALYAFFW | failed
5 | MDSFKVVLEGPAPWGFRLQGGKDFNVPLSISRLTPGGKAAQAGVAVGDWVLSIDGENAGSLTHIEAQNKIRACGERLSLGLSRAQPAQSKPQKALTPPADPPRYTFAPSASLNKTARPFGAPPPTDSALSQNGQLLRQLVPDASKQRLMENTEDWRPRPGTGQSRSFRILAHLTGTEFMQDPDEEFMKKSSQVPRTEAPAPASTIPQESWPGPTTPSPTSRPPWAVDPAFAERYAPDKTSTVLTRHSQPATPTPLQNRTSIVQAAAGGGTGGGSNNGKTPVCHQCHKIIRGRYLVALGHAYHPEEFVCSQCGKVLEEGGFFEEKGAIFCPSCYDVRYAPSCAKCKKKITGEIMHALKMTWHVPCFTCAACKTPIRNRAFYMEEGAPYCERDYEKMFGTKCRGCDFKIDAGDRFLEALGFSWHDTCFVCAICQINLEGKTFYSKKDKPLCKSHAFSHV | failed
6 | MDSFMESLNRLKEAHEKEVLGLQNKLLELNSERCRDAQRVEELFAKNHQLREQQKALKENLRVLENRLRAGLCDRCMVTQELARKKQLELENAHLQSLQHLCILTNEMNGLREENKILKEEVKRLRSLGDKTAPQAWEGTSEPPSPLPLPSPRQASGPP | failed
7 | MDSGESGPQQWAGVVKVNDRMGYVTFTDAAGTELIPTNTIPVTLNARMAYIYCQVDEGQDLSTNPKSIKITLLADPTGIDATAITTPKVGESGDVTTNAPVGSLSFVSGYSTVAPFQFSENTIVLPVLYRVKNVTTTEDIKNELAKHTFTLVCYTDDIKSGDTILKLYLRYKVEDEPAAIAERATRTSSFKAYEISQILREYTLKSGQTKPAKITIVAQQNEYNNKLEDTSTIEKVYEIEYKTAE | not failed
8 | MDSKEGKLTVIGEFDEMQILKKLKKRWESAKMATFGPFDPKKEAETAAAAEKKKKEENEREREREREEALYRSQSHHDTPVCPMHHHTTIVCDHDHGCIIS | failed
9 | MDSKIDFSSYSLNDLYSSAESIDRDVYPERAKEIDGLIRQKEAEFPEEIDTTKDIGEKATKSDRLMAAIIDGVIGIISLVPVIFYVGFDSFKEPSLSLLGILFIYGVFVTMVLHGYLLYYYGQTIGKNYMSIRIENLDGTKASLATIYFKRMLPMQLIGLIPSFGQFISGIVNPLFIFGKQRRCLHDYLAKTKVSYTGT | failed
10 | MDSPIINEQFWDALFFNGTMPWDRSQTPNELKHYLKRIADKTHSVFIPGCGAAYEVSHFVDCGHDVIAMDYSAEAVNLAKSQLGQHQDKVMLGDVFNADFSREFDVIYERAFLAALPREIWGDYFAMIERLLPSNGLLVGYFVISDDYRSRFPPFCLRSGEIEQKLEANFHLIESTPVTDSVDVFKGKEQWMVWQKLEHHHHHH | failed
11 | MDSYSITNVKYLDPTELHRWMQEGHTTTLREPFQVVDVRGSDYMGGHIKDGWHYAYSRLKQDPEYLRELKHRLLEKQADGRGALNVIFHCMLSQQRGPSAAMLLLRSLDTAELSRCRLWVLRGGFSRWQSVYGDDESVTAGYLPDLWR | not failed
12 | MDTAEIEADQRALQHASVEGTTETPGNAQSSTNDDVIKATVDQIVAQILSESAERKATEEGKTGKAADDVKNTPESGEDANKAAAKEPSGTPVAASSEATVPAPGSASSSNSPLPGTPPKYSNPHNLTIGARLEALSVEGNWLPARIVEVNETEQTLLVRFERNHKLKVSPSTSGSFQEWMAIKSERLRQRLSNRVLPVFELDEKCMARWSGPRKFPGTIRKLLGNDTYEVLFDDGYVKNVRAVHMNKMPKQLPPVQVAEEGASKSPTPVGTPVSSAPVAPKRASTGSLGGSSGSSGSKKSKCAPQRRDWPLLDMASLDIASLGLPEIPHDGEWTCHWVNDQPIGTEGFLIVGEHQKPTVIVQDWRLPPGWIKHMYQRSNVLGKWDVILVSPSGKRFRSKSDLKLFLESQNLVYNPDVYDFSIHRRRAKDINAYVYTHGYNPQPPPKPRPMDVSMNSTLDQSITSQHSLPSTPMPVKESQYMEAPVASLMPPAELMSPQTQPADETKPKIEAEILEASEGGTSQLMLADPHVVENGFAFIGGLKVKIQDNLYVCPREDCAKTYRKEDFLLIHIRHYHKEFAEHVSHCPKMQELAVKRTHPSSIDQVEAVPKNQIPNQQFFAKMHQQDLQQSRSFKRQSVSATATSSTPSDITPTKALLSPKMEPPSVSPTVESGIKQEDVSLDAGPTQSFNPSLSRSCKRARLSPSKRPSGSRKSNRQRSQRRPILSDNPAGHGLTEQDVEETRQSFNTPTPDTRIDSKKRRSGAATTPISSIDSPAMGDSVSTPSSNDQTDINAALAPPPAETLSKAPQYIKENGELIRIVRMRQEEIINCICEYGEEDGLMIQCELCLCWQHGACNGIVKEADVPDKYVCYICRNPQRGRDSMRFKHDQDWLFEGKLPVAAYHTANPQATKQFELLKRSHTLTGNLLDAKRSMHSLLVKINIARNRCHPKLYLWAKKWDEDNLDSTALTPVKRAKLEAPDLPNVPQPEAAIDPEECQYRLIEHIKVQQSLVLDRLNDIEAEMDELEKEDTLDDLKDADISTTKEALATFIKELETMKRLAKLNQVANMKQTLRDSATSK | failed
13 | MDTAKTKPFDEMFLQDEVIRPIYAEYAAWLQDVPHQQLESKRQEAELLFRRVGITFNVYGEDAGAERLIPFDVVPRILSASEWARLSDGAIQRVKALNMFLHDVYHDQEIIKAGIVPSSILANAQYRPEMFGVDVPGGVYAHIAGVDLVRTGENDFYVLEDNLRTPSGVSYMLENRKMMMRLFPELFRRYPVAPVEHYPQVLLNNLRAVAQAGVHEPTVVLLTPGAYNSAYFEHAFIAQQMGIELVEGQDLFVRNNAVYMRTTEGPKRVDVIYRRIDDDFIDPLSFRPDSMLGVPGLLSVYRNGGVTLANAVGTGVADDKDTYIYVPEMIRFYLGEEPILSNVPTYQLSKADDLKYVLDNLAELVVKEVQGSGGYGMLVGPAASKQELEDFRQRILANPANYIAQPTLALSTCPTLVETGIAPRHVDLRPFVLSGKTVSLVPGALCRVALREGSLVVNSSQGGGTKDTWILKD | not failed
14 | MDTGDKEAGEQIVCKPSFFRVSDNHHHPSRAGCPLHQGQARTGSGSPRGQVAGAEKGGDEGGRRGSGGGSSEPRDRRRREQPRAAGDEDGSAGRAHGAQGHGHGGVCGARSQRPALLKPGSRRARGAGGGRMERKGLAARASGNPSPPALGEGPRPGPPPCVPSGGGAPERGQAGAAAEPAELIRRAHEFKSQGAQCYKDKKFREAIGKYHRALLELKGLLPPPGERERDARPASPAGIPKASRLSEEQSKTVEAIEIDCYNSLAACLLQAELVNYERVKEYCLKVLKKEGENFKALYRAGVAFYHLGDYDKALYYLKEARTRQPSDTNVIRYIQLTEMKLSRCSQREKEAM | failed
15 | MDTGPDQSYFSGNHWFVFSVYLLTFLVGLPLNLLALVVFVGKLRCRPVAVDVLLLNLTASDLLLLLFLPFRMVEAANGMHWPLPFILCPLSGFIFFTTIYLTALFLAAVSIERFLSVAHPLWYKTRPRLGQAGLVSVACWLLASAHCSVVYVIEFSGDISHSQGTNGTCYLEFWKDQLAILLPVRLEMAVVLFVVPLIITSYCYSRLVWILGRGGSHRRQRRVAGLVAATLLNFLVCFGPYNVSHVVGYICGESPVWRIYVTLLSTLNSCVDPFVYYFSSSGFQADFHELLRRLCGLWGQWQQESSMELKEQKGGEEQRADRPAERKTSEHSQGCGTGGQVACAEN | failed
